Assays:
[1] = target: T1, Jun-anti-AFP antibody binding to the Fos-coated microtiter plate (FBJ murine osteosarcoma virus, UniProt P01102); experiment: Inhibition of the Jun-anti-AFP antibody binding to the Fos-coated microtiter plate by addition of free peptide
T1 construct: host or cells: synthetic peptides; conjugate made in house
Procedure: 100 μl portions of a Jun peptide-anti-AFP antibody conjugate (anti-AFP antibodies from sheep) prepared as in Example 2, Step 3 or 3a are pipetted into the wells of microtiter plates which were coated with Fos peptide as in Example 2, Step 1, and incubated at 37° C. for 2h. After the wells had been washed three times with washing buffer (OSEW, Behringwerke), 20 μl portions of standard or sample and 100 μl of a buffer (OSND, Behringwerke) with the addition of peroxidase-conjugated anti-AFP antibodies from sheep were introduced. The two-hour incubation at 37° C. is again stopped with a washing step (see above), and the substrate/chromogen reaction is carried out as in Example 2, Step 4.
The Jun/Fos AFP assay described hereinbefore was preceded by an incubation step with 100 μl in each case of a Jun or Fos peptide-containing buffer solution (buffer=OSND) per well at 37° C. for one hour. After 3 washes, the subsequent assay procedure was as specified above.

[2] = target: c-Jun "leucine zipper peptide" (SEQ ID No1) (Homo sapiens, UniProt P05412); conditions: cited from earlier work

Sequence	Measured signal (extinction 450 nm) Standard S0 (0 IU AFP/ml) ([1]; free peptide 5 μg/ml)	Measured signal (extinction 450 nm) Standard S5 (300 IU AFP/ml) ([1]; free peptide 5 μg/ml)	Measured signal (extinction 450 nm) Standard S0 (0 IU AFP/ml) ([1]; free peptide 50 μg/ml)	Measured signal (extinction 450 nm) Standard S5 (300 IU AFP/ml) ([1]; free peptide 50 μg/ml)	Measured signal (extinction 450 nm) Standard S0 (0 IU AFP/ml) ([1]; free peptide 500 μg/ml)	Measured signal (extinction 450 nm) Standard S5 (300 IU AFP/ml) ([1]; free peptide 500 μg/ml)	heterodimeric complexes with the c-Jun "leucine zipper peptide" [2]	inhibition of the binding of Jun-anti-AFP antibody to the Fos-coated solid phase ([1]; addition of free peptide)
LTDTLQAETDQLEDKKSALQTEIANLLKEKEKLEFILAAY [Fos, synthetic peptide comprising positions 162 to 201, the leucine zipper of the v-Fos protein]	0.010	3.416	0.011	3.572	0.015	3.694	forms very stable heterodimeric complexes	–
RIARLEEKVKTLKAQNSELASTANMLREQVAQLKQKVMNY [Jun, synthetic peptide comprising amino-acid positions 285 to 324, the so-called leucine zipper of the c-Jun protein]	0.015	3.486	0.011	2.857	0.013	1.371	–	possible to inhibit the binding
